# B1: full-length human α-catenin (residues 1-906) (natural protein, UniProt P35221 1-906, looked up)
# chain: MTAVHAGNINFKWDPKSLEIRTLAVERLLEPLVTQVTTLVNTNSKGPSNKKRGRSKKAHVLAASVEQATENFLEKGDKIAKESQFLKEELVAAVEDVRKQGDLMKAAAGEFADDPCSSVKRGNMVRAARALLSAVTRLLILADMADVYKLLVQLKVVEDGILKLRNAGNEQDLGIQYKALKPEVDKLNIMAAKRQQELKDVGHRDQMAAARGILQKNVPILYTASQACLQHPDVAAYKANRDLIYKQLQQAVTGISNAAQATASDDASQHQGGGGGELAYALNNFDKQIIVDPLSFSEERFRPSLEERLESIISGAALMADSSCTRDDRRERIVAECNAVRQALQDLLSEYMGNAGRKERSDALNSAIDKMTKKTRDLRRQLRKAVMDHVSDSFLETNVPLLVLIEAAKNGNEKEVKEYAQVFREHANKLIEVANLACSISNNEEGVKLVRMSASQLEALCPQVINAALALAAKPQSKLAQENMDLFKEQWEKQVRVLTDAVDDITSIDDFLAVSENHILEDVNKCVIALQEKDVDGLDRTAGAIRGRAARVIHVVTSEMDNYEPGVYTEKVLEATKLLSNTVMPRFTEQVEAAVEALSSDPAQPMDENEFIDASRLVYDGIRDIRKAVLMIRTPEELDDSDFETEDFDVRSRTSVQTEDDQLIAGQSARAIMAQLPQEQKAKIAEQVASFQEEKSKLDAEVSKWDDSGNDIIVLAKQMCMIMMEMTDFTRGKGPLKNTSDVISAAKKIAEAGSRMDKLGRTIADHCPDSACKQDLLAYLQRIALYCHQLNICSKVKAEVQNLGGELVVSGVDSAMSLIQAAKNLMNAVVQTVKASYVASTKYQKSQGMASLNLPAVSWKMKAPEKKPLVKREKQDETQTKIKRASQKKHVNPVQALSEFKAMDSI
# notes: cDNA from Open Biosystems; One construct that was isolated as a monomer pool and as a dimer pool; the dimer pool holds two copies of the chain; also called full-length monomeric human α-catenin; full-length dimeric human α-catenin; source: E. coli BL21(DE3), purified similar to HMP1/α-catenin; monomer and dimer SEC peaks pooled separately and run again on Superdex S200; not shown: GST, …
# B2: HMP1/α-catenin F-actin binding domain (FABD, residues 677-927) (domain or fragment, C. elegans, UniProt P90947 677-927, looked up)
# chain: NLMRRLPEEEKKKIQAQIDIFKVTQTRFEREVAKWDETGNDIISLANNMCKIMMSMTEFTRGCGPLKTTMDVIRAAQEISLNGSKLNALARQIGEESADSQTKKDLLAYLSQITLYCQQLNICSKVKADVTQVGNELVVSALDSAMSLIQTARNLLTAVVQTVKAAYIASTKFRRPNANSVRVEWRMAPPKKQPLIRPQKNNAIIRRASERRPLQPAKVLAEFTRNEIETGRDSDDEELDRRHQQRINGRL
# notes: Cloned into pGEX-6P-1 with a PreScission site by DNA Custom Cloning; also called HMP1/α-catenin FABD; FABD of HMP1/α-catenin; source: E. coli BL21(DE3), purified as described for full-length HMP1/α-catenin; not shown: GST, N-terminal, cleaved
# Key:
# [1] = molecular target: the molecule itself; experiment: SEC; Superdex S200 10/300 Gl, 20 mM Tris pH 8, 150 mM NaCl, 0.2 mM TCEP; monomer and dimer peaks pooled separately and each run a second time
# [2] = molecular target: the molecule itself; experiment: cryo-EM structure; F-actin (0.7 uM) put on the grid first, then 0.6 mg/ml (21 uM) HMP1/α-catenin FABD added and removed repeatedly; helical reconstruction at 3.36 Å
Protein,stoichiometry N [1],binding result [2]
B1,2,–
B2,–,binds

# Reference: paper PMC9860117, “The nematode α-catenin ortholog, HMP1, has an extended α-helix when bound to actin filaments” (The Journal of Biological Chemistry, 2022)
